Reference: article PMC4342579, “A new cytoplasmic interaction between junctin and ryanodine receptor Ca^2+ release channels” (Journal of Cell Science, 2015)
Blank lines part the entries; values can stand above or below the molecule they belong to. Ends that are not written are not given here. * marks the point of attachment. Biotin = O=C1N[C@H]2[C@H](CS[C@H]2CCCCC(=O)*)N1

Tests used:
[1] = molecular target: RyR1 purified from rabbit skeletal muscle (rabbit) (UniProt P11716)
[2] = molecular target: RyR1 purified from rabbit skeletal muscle (rabbit) (UniProt P11716); remark: listed apart in the source
[3] = molecular target: T1, full length recombinant mouse RyR2 (mouse, UniProt E9Q401 1-4966); assay: pull-down; NeutrAvidin–agarose affinity chromatography: biotinylated Njun or scrambled Njun on the agarose, recombinant RyR or RyR1 fragments (isolated from HEK293) incubated overnight at 4°C in PBS plus 0.1% SDS; RyR detected with 34C or anti-GFP antibody; settings: both partners purified
T1 construct: ryanodine receptor 2 (RyR2), mouse, recombinant; Cell line of Koop et al., 2008; also called recombinant RyR2

[4] = molecular target: T2, RyR1 purified from rabbit skeletal muscle (rabbit, UniProt P11716 1-5037); assay: cell-based or functional assay
[5] = molecular target: T2, RyR1 purified from rabbit skeletal …; assay: pull-down; affinity chromatography: biotinylated canine KEKE peptide on streptavidin–agarose, purified RyR1 or RyR2; settings: both partners purified

T2 sequence (P11716 whole entry): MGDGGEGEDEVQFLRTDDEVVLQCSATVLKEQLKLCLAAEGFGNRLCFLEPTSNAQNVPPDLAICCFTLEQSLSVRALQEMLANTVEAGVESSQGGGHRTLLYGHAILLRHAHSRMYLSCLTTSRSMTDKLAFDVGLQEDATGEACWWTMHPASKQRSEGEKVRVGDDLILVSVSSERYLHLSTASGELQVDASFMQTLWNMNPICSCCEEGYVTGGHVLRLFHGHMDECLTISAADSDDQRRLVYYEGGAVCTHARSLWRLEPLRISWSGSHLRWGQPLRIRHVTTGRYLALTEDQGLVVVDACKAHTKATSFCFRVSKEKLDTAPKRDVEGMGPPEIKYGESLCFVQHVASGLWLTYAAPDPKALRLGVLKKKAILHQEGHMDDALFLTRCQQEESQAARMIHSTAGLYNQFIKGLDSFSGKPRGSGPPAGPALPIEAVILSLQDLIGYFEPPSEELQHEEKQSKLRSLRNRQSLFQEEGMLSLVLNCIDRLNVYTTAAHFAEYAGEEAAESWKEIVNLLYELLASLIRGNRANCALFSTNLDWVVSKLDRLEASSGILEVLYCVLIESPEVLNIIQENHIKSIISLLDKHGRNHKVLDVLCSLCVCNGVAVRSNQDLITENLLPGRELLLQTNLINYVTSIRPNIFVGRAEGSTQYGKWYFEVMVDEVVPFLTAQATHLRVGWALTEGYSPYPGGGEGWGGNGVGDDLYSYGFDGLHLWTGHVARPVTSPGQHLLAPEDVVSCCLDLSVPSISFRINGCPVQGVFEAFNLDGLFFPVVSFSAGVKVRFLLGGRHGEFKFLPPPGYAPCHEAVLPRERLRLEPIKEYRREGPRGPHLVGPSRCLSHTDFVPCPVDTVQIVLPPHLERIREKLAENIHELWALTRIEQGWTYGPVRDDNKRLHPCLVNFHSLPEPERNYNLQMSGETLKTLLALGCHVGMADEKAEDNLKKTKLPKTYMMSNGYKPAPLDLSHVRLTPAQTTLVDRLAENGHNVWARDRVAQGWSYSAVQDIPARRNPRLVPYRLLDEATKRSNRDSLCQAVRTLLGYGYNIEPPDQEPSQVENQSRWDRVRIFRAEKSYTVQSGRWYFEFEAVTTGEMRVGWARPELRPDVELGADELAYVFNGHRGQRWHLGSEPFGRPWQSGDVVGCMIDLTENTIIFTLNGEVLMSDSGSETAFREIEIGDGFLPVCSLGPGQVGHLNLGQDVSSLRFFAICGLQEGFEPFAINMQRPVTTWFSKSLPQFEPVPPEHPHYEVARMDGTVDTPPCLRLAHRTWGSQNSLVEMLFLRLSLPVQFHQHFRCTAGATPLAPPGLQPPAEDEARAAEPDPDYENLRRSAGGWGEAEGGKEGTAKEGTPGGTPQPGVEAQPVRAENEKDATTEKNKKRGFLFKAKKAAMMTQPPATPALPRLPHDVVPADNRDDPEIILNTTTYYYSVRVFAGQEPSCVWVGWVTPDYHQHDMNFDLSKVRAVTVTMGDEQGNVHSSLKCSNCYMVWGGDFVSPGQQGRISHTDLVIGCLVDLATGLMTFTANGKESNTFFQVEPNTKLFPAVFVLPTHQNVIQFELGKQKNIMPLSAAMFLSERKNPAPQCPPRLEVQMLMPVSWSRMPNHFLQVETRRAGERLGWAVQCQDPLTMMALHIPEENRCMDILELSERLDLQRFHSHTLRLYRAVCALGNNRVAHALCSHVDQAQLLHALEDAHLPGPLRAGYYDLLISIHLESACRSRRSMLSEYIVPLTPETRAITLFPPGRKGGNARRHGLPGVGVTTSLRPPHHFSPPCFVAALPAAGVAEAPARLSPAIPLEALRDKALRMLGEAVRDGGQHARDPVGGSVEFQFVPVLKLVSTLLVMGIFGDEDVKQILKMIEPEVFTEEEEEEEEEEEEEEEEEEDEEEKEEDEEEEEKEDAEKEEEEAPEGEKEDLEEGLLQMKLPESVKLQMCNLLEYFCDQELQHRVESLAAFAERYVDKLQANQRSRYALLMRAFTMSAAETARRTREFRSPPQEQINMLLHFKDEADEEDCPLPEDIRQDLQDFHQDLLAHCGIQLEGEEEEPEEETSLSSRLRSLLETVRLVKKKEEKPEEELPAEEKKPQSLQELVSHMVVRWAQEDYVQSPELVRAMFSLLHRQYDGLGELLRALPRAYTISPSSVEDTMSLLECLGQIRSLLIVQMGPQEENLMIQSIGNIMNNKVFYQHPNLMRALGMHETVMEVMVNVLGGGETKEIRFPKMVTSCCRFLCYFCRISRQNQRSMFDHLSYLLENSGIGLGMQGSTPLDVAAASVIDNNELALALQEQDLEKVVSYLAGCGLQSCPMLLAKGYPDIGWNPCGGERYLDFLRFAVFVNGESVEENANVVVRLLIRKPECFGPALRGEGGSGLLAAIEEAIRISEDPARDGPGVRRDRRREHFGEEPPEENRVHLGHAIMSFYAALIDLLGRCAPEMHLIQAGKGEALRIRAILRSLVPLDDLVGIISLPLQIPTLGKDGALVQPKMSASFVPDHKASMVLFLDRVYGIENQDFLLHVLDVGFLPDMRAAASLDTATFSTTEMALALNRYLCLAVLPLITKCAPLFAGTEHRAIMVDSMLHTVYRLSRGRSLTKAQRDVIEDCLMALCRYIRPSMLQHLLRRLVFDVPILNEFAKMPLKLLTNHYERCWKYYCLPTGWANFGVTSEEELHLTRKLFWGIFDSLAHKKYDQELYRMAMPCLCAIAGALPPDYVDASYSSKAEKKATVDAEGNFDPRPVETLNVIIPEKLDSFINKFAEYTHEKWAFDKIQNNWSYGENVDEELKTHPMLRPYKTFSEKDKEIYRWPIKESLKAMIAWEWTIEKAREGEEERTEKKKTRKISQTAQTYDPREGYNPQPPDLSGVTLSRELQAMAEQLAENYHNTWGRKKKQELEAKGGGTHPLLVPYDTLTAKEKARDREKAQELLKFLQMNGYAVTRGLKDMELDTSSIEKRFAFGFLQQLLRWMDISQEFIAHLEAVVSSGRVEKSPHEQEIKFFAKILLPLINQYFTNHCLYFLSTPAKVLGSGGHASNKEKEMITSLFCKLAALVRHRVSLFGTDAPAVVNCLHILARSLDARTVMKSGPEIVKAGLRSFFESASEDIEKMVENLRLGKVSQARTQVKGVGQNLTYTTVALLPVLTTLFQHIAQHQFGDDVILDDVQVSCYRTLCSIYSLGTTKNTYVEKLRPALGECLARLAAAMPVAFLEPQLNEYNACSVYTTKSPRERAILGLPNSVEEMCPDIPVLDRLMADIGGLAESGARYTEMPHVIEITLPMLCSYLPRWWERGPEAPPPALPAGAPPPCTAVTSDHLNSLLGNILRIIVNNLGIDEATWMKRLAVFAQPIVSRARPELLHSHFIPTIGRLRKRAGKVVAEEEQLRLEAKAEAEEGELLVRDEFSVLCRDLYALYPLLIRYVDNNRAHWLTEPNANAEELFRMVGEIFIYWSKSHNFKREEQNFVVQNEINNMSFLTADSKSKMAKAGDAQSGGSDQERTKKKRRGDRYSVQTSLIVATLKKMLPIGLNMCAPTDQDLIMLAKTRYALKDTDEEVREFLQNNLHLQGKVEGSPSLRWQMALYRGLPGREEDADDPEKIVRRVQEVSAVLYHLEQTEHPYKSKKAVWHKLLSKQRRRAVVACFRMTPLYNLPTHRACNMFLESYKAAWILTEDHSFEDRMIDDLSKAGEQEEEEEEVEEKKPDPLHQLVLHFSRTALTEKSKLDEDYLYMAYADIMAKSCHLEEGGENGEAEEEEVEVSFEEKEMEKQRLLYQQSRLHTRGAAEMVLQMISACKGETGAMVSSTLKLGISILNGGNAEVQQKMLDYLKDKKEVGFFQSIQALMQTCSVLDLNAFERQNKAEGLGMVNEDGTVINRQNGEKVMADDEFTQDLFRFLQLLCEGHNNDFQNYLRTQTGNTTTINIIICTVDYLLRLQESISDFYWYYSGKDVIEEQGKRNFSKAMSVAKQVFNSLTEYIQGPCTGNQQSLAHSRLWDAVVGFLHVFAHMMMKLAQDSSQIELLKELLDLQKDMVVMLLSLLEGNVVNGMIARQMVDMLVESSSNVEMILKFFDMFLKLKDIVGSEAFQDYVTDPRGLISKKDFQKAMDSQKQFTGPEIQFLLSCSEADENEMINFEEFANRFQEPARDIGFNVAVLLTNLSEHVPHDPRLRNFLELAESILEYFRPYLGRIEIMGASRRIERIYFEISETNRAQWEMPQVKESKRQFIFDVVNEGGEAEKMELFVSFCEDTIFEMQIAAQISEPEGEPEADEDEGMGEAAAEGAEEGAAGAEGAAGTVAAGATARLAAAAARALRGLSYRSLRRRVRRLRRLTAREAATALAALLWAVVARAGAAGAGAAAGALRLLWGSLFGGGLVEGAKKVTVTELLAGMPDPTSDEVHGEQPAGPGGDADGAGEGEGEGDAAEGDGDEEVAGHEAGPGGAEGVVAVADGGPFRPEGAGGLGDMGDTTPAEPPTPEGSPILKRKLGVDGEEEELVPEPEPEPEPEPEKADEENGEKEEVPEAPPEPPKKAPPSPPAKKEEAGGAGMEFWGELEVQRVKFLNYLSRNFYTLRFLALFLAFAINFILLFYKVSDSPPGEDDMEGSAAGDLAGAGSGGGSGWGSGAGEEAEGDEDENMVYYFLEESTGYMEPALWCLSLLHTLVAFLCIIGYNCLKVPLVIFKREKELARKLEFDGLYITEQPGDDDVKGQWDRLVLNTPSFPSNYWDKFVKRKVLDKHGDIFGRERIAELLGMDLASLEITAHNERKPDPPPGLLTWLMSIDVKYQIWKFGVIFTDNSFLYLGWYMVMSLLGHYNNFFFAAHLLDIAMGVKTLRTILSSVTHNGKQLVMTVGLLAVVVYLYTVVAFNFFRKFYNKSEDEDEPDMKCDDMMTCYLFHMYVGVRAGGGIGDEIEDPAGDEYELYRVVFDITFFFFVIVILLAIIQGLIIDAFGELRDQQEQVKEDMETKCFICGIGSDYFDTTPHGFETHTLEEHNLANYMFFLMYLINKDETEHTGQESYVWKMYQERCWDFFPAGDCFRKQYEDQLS
RyR1 purified from rabbit skeletal muscle (rabbit), sequence (P11716 whole entry, the tested form may be a part): as the sequence (P11716 whole entry) above

Molecule: full-length junctin isolated from rabbit skeletal muscle (natural protein)
- open probability of purified RyR1 channels in lipid bilayers, 213 nM FLjun in the luminal solution, increase over control [1]: 1.9 fold

B2: Cjun KEKE motif peptide (canine), residues 84–105, biotinylated (peptide)
peptide: Biotin-KRKTKAKVKELTKEELKKEKEK
notes: junctin, canine, KEKE motif, residues 84-105; also called canine KEKE peptide; KEKE peptide; source: synthetic peptide
- binding result [5]: binds

Second part, the molecule after the results:

- open probability (Po) of purified RyR1 channels in lipid bilayers, 213 nM Cjun in the luminal solution, relative to control [2]: 0.68 of control
Molecule: C-terminal domain of canine junctin (amino acids 46–210), His6-tagged (domain or fragment)

- binding result [3]: binds
- open probability of purified RyR1 channels in lipid bilayers, 213 nM Njun in the cytoplasmic solution, increase over control [4]: 5 fold
B1: Njun peptide, N-terminal cytoplasmic domain of junctin (residues 1–22), biotinylated (peptide)
peptide: Biotin-MAEETKHGGHKNGRKGGLSQSS
notes: junctin, N-terminal cytoplasmic domain, residues 1-22; also called biotinylated Njun; junctin cytoplasmic domain; source: synthetic peptide
